The results in this text go back to patent US20240117047A1 (University of California, published 2024).

Substitutions are numbered along the chain they refer to.

B1: UC-102 (antibody, V domains shown)
VH: DVHLQESGPGLVKPSQSLSVTCTVTGYSITGSYSWNWIRQFPGNKLEWMGYIHSSGTTNYNPSLKSRISFTRDTSKNQLFLQLNSVTTEDTATYYCTRGFAYWGQGTLVTVSA
VL: NIVMTQSPSSMSASLGDRITITCQATQDIVKNLNWYQQKPGKPPSFLIYYTTELAEGVPSRFSGSGSGSDYSLTISNLESEDFADYYCLQFYEFPPTFGAGTKLELKR
notes: Mouse-derived anti-hROR1 mAb, detected with anti-mouse IgG; also called UC-102 mAb
B2: UC-107 (antibody, V domains shown)
VH: QIQLVQSGPELKKPGETVKISCKASGYTFTNYPIHWVKQAPGKGLKWMGWINTYSGVPTYADDFKGRFAFSLETSANTAYLQLNNLRNEDMATYFCARGDSSLFDYWGQGTTLTVSS
VL: DVQMIQSPSSLSASLGERVSLTCRASQEISGYLIWLQQKPDGTITRLIYAASTLDSGVPKRFSGSRSGSDYSLTISSLESEDFADYYCLQYTSYPLTFGAGTKLELKR
notes: Mouse-derived anti-hROR1 mAb, detected with anti-mouse IgG; also called UC-107 mAb
B3: UC-103 (antibody, V domains shown)
VH: EIQLQQSGPVLVKPGASVKVSCKASGYAFTAYNIHWVRQSHGKRLEWIGSFDPYDGGSSYNQKFKDKATLTVDKSSTTAYMHLNSLTSEDSAVYYCARGWYYFDYWGHGTTLTVSS
VL: DVQITQSPSYLAASPGETITINCRASKSISKYLAWYQEKPGKTNKLLIYSGSTLQSGIPSRFRGSGSGTDFTLTISSLEPEDFAMYYCQQHDESPYTFGEGTKLEIKR
notes: Mouse-derived anti-hROR1 mAb, detected with anti-mouse IgG; also called UC-103 mAb
B4: UC-101 (antibody, V domains shown)
VH: EVQLLETGGGLVQPGGSRKLSCVASGFSFSSYGMHWVRQAPEKGLEWVAYIGGTSNTIYFADTVKGRFTISRDNAKNTLFLQMASLRSEDTAMYYCARTNLLGMDYWGQGTSVTVSS
VL: QIVLTQSPTIMSASPGEKVTMTCSASSSVSDMYWYQQKPGSSPRLLIYDTSNLASGVPVRFSGSGSGTSYSLTISRMEAEDAATYYCQQWISYTFGGGTKLEIKR
notes: Mouse-derived anti-hROR1 mAb, detected with anti-mouse IgG; also called UC-101 mAb
B5: UC-104 (antibody, V domains shown)
VH: EVQLLETGGGLVQPGGSRKLSCAASGFTFSNYGMHWVRQAPGKGLEWVAHISRYSDTIYYADAVKGRFTISRDNAKNTLFLQMTTLRSEDTAIYYCTSAMDYWGQGTSVTVSS
VL: DIQMTQTTSSLSASLGDRVTISCRASQDISNYLNWFQQKPDGTIKLLIYYTSRLHSGVPSRFSGSGSGTDYSLTISNLEQEDIATYFCQQGNTLPFTFGSGTKLEIKR
notes: Mouse-derived anti-hROR1 mAb, detected with anti-mouse IgG; also called UC-104 mAb
B6: UC-105 (antibody, V domains shown)
VH: EVKLVESGGGLVQPGGSRKLSCAASGFTFSSYGMHWIRQTPDKGLEWVAYISSNSDHIFYTDTVKGRFTISRDNAKNTLFLQMTSLRSEDTAMYYCASRMDYWGQGTSVTVSS
VL: B5 VL with Y32H, F36Y, I44V, E81G, N92S, F96Y, S100G
notes: Mouse-derived anti-hROR1 mAb, detected with anti-mouse IgG
B7: UC-106 (antibody, V domains shown)
VH: B2 VH with N31Y, L83I
VL: B2 VL with D1G, V2H, I5T, T45K, D55N
notes: as for B6

T2 sequence (Q01973 30-406 E138K limits assumed): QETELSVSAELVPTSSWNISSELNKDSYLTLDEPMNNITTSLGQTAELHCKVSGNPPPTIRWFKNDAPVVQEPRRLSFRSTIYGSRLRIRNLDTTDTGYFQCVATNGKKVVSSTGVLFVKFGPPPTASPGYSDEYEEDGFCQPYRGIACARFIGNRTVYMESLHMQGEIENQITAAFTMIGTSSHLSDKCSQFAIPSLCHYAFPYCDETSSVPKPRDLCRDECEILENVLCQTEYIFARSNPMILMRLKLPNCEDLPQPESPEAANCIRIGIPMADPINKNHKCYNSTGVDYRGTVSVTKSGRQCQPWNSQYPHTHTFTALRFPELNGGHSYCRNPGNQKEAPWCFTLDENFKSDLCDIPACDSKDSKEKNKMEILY
T3 sequence (Q01973 30-406 T346S limits assumed): as the sequence (Q01973 30-406 E138K limits assumed) above, with K109E, T317S counted along it

The first assay deals with T1, extracellular domain of human ROR1 (human, UniProt Q01973 30-406).
T1 construct: also called hROR1; hROR1 extracellular recombinant protein
T1 sequence (Q01973 30-406 limits assumed): as the sequence (Q01973 30-406 E138K limits assumed) above, with K109E counted along it
The assay is described as follows: ELISA screening. Background: An ELISA detects its analyte on a solid surface through an enzyme-linked reagent.
For B1, the binding result is listed as “binds”.

For B2, the binding result is reported as “binds”.

Turning to B3, the binding result was “binds”.

As to B4, the binding result is on record as “binds”.

In the case of B5, the binding result was “binds”.

On to B6, for which the binding result is listed as “binds”.

A further assay concerns the target T1, extracellular domain of human ROR1. The assay is described as follows: blot, non-denaturing gel. The source says: (§1) Schematics of the chimeric constructs of the extracellular portion of ROR1 used to map the domain of hROR1 bound by each of the mAb in this disclosure. The dark regions of each construct indicate hROR1, light portions denote regions of mROR1, and hatched portions indicate deleted regions. Arrows mark the boundaries between the mouse and hROR1 regions for constructs #5, #6, #13 and #14, which depict the first 160 amino acids of the extracellular region that includes the Ig-like domain. The amino acids that differ between human and mROR1 are indicated by the single letter abbreviation at that position. (B) Each of these recombinant proteins were separated in non-denaturing polyacrylamide gel, transferred onto nylon, probed with the anti-hROR1 mAb indicated on the left, and detected with an anti-mouse IgG antibody conjugated with horse radish peroxidase. […] None of the antibody bind to mROR1.
Consider B7, for which the binding result is “binds”.

Another assay addresses T2, hROR1 with a single amino acid substitution at position 138 (glutamic acid to lysine) (human, UniProt Q01973 30-406).
T2 construct: Recombinant mutant of the hROR1 extracellular domain; also called hROR1 E138K
The assay is described as follows: binding to point-mutated hROR1.
On to B1, for which the binding result is recorded as “no binding”.

Take B3: the binding result is recorded as “no binding”.

Turning to B4, the binding result is on record as “no binding”.

On to B5, for which the binding result is listed as “no binding”.

For B6, the binding result is listed as “no binding”.

Another assay concerns the target T3, hROR1 with a single amino acid substitution at position 346 (threonine to serine) (human, UniProt Q01973 30-406).
T3 construct: Recombinant mutant of the hROR1 extracellular domain; also called hROR1 T346S
The assay is described as follows: binding to point-mutated hROR1.
B2: the binding result is recorded as “no binding”.

The next assay deals with T3, hROR1 with a single amino acid …. The assay is described as follows: binding to point-mutated hROR1; blot in FIG. 6. The text has this: Neither of the antibody reacts with mROR1 protein. […] We generated recombinant hROR1 proteins having either the mouse or human amino acid residue at this position only.
For B7, the binding result is “no binding”.

Another assay deals with T4, extracellular domain of mouse ROR1 (mouse, UniProt Q9Z139 30-406).
T4 construct: also called mROR1; mROR1 protein
T4 sequence (Q9Z139 30-406 limits assumed): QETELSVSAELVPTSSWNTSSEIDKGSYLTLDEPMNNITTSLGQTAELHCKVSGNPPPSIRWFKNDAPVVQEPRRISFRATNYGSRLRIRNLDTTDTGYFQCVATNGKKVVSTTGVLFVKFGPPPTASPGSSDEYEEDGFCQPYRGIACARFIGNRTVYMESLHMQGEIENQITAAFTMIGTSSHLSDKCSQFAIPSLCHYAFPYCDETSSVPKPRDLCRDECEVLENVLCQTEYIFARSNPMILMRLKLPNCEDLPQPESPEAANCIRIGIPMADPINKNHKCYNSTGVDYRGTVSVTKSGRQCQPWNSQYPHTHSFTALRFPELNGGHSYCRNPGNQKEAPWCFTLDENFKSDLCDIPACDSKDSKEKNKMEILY
The assay is described as follows: blot of recombinant protein, non-denaturing gel.
Description: as §1
As to B1, the binding result is “no binding”.

On to B7, for which the binding result is reported as “no binding”.

For B2, the binding result is on record as “no binding”.

Regarding B3, the binding result is on record as “no binding”.

As for B4, the binding result is reported as “no binding”.

In the case of B5, the binding result was “no binding”.

For B6, the binding result is reported as “no binding”.
